# Measurements taken from patent publication US20240377408A1.
# Legend:
# Test in all cases: cell-based or functional assay
# M64-FAEIR = molecular target: M64-FAEIR
# M64-LAEIR = molecular target: M64-LAEIR
# M64-AAEIR = molecular target: M64-AAEIR
# M64-EAEIR = molecular target: M64-EAEIR
# M64-DAEIR = molecular target: M64-DAEIR
# [1] = molecular target: human carbonic anhydrase 2 (wild-type hCAII) (Homo sapiens) (UniProt P00918)
"IC50 values (µM), colorimetric pNPA hydrolysis inhibition assay (M64-FAEIR)","IC50 values (µM), colorimetric pNPA hydrolysis inhibition assay (M64-LAEIR)","IC50 values (µM), colorimetric pNPA hydrolysis inhibition assay (M64-AAEIR)","IC50 values (µM), colorimetric pNPA hydrolysis inhibition assay (M64-EAEIR)","IC50 values (µM), colorimetric pNPA hydrolysis inhibition assay (M64-DAEIR)","IC50 (µM), hCAII functional assay (p-nitrophenyl acetate hydrolysis) [1]",Substance
0.012 µM,0.016 µM,0.109 µM,1.09 µM,0.136 µM,–,"Carbonic anhydrase I, Homo sapiens (scaffold) (from UniProt P00915 5-261) (enzyme)"
–,–,–,–,–,152 µM,FAAAE (peptide)
